Like-named read-outs stand apart in the source and are kept apart here. Where a SMILES comes first, the peptide text is derived from it. Where no end group is shown, it is not given here.
Legend:
[1] = target: Porcine pancreatic lipase (porcine) (UniProt P00591)
[2] = target: Porcine pancreatic lipase (porcine) (UniProt P00591); remark: listed apart in the source
[3] = target: T1, porcine pancreatic lipase (Sus scrofa, UniProt P00591); assay: Assay of lipase inhibitory activity (olive oil emulsion with sodium cholate, Tris buffer pH 6.8); type: biochemical; conditions: for Activity of porcine pancreatic lipase: peptide solution 1 mg/ml in distilled water, control = 100
T1 construct: purchased Sigma Co., Ltd
T1 sequence (P00591 1-450): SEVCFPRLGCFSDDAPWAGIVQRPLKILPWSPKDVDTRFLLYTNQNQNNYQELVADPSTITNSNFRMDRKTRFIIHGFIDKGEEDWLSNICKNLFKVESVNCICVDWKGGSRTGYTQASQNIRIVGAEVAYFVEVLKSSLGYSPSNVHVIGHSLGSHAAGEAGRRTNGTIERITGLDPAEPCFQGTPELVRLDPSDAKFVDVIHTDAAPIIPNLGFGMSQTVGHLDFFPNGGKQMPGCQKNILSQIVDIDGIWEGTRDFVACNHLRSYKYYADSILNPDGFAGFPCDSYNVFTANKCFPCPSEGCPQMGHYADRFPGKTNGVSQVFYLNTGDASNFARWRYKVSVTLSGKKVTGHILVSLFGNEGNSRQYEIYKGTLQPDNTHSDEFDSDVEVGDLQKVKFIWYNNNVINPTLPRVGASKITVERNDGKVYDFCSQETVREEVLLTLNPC
Procedure: 250 mg of an olive oil, 21.5 mg of sodium cholate as a bile acid component and 30 mg of phosphatidylcholine were added to 5 ml of a 200 mM Tris buffer solution at pH 6.8 (called hereafter "Tris buffer").
(§1) The mixture was ultrasonicated to prepare an olive oil emulsion.
Porcine pancreatic lipase (manufactured by Sigma Co., Ltd.) was added to Tris buffer to prepare an enzyme solution containing 100 units porcine pancreatic lipase per ml.
(§2) 100 μl of an olive oil emulsion as prepared above were used as a substrate.
(§3) 50 μl of Tris buffer was added to the substrate to prepare an emulsion for control sample. Each 50 ml of the protein(polypeptide)-containing solutions as prepared above was added to 100 μl of the substrate to prepare six emulsions for test sample. All of the emulsions were incubated for 5 min. To each of those emulsions was added 50 μl of the lipase solution as prepared above. The resulting mixture was incubated at 37° C. for one hour, subsequently to which were added 3 ml of the same extraction solvent as used in Example 1. After being shaken for 5 min., the mixture was centrifuged at 3000 rpm for 5 min. The upper layer was removed with an aspirator and to the remaining solution was added 1 ml of the same copper reagent as used in Example 1. The mixture was shaken for 5 min. and centrifuged at 3000 rpm for 5 min. 0.5 ml of a solution was taken from the upper layer and to the solution was added 0.5 ml of the same color developing agent as used in Example 1.
The resulting solutions for control and test samples were measured for the absorbance at 480 nm (A480) using a photometer to determine the amount of the free fatty acids as formed, i.e., the activity of the porcine pancreatic lipase. […]
Lysine oligomers having a degree of polymerization of 2-5 as shown in Table 6 below were prepared using a peptide synthesizer (Biolynx 4170, LKB-Pharmacia Co., Ltd.). Each of the oligomers was purified by high performance liquid chromatography. Each of the purified oligomers was added to distilled water to make up to 1 μmol/ml. […] lysine oligomer-containing solutions were thus prepared.
50 μl of Tris buffer was added to the substrate to prepare an emulsion for control sample. Each 50 μof the lysine oligomer-containing solutions as prepared above was added to 100 μl of the substrate to prepare six emulsions for test sample. After incubating the emulsions for 5 min., there was added 50 μl of a lipase solution containing 100 units of porcine pancreatic lipase per ml as prepared in the same way as in Example 4. The resulting mixture was incubated at 37 ° C. for one hour.

[4] = target: Porcine pancreatic lipase (porcine) (UniProt P00591); remark: listed apart in the source
[5] = target: Porcine pancreatic lipase (porcine) (UniProt P00591); remark: listed apart in the source
[6] = target: Porcine pancreatic lipase (porcine) (UniProt P00591); remark: listed apart in the source
[7] = target: Porcine pancreatic lipase (porcine) (UniProt P00591); remark: listed apart in the source
[8] = target: T1, porcine pancreatic lipase; assay: Assay of lipase inhibitory activity of proteins (olive oil emulsion with sodium cholate, potassium phosphate buffer pH 6.8); type: biochemical; conditions: for Activity of porcine pancreatic lipase (%): protein solution 4 mg/ml, % of control Abs480, sodium cholate present, 37° C., one hour; for Activity of porcine pancreatic lipase: % of control
Procedure: 250 mg of an olive oil, 21.5 mg of sodium cholate as a bile acid component and 30 mg of phosphatidylcholine were added to 5 ml of a 300 mM potassium phosphate buffer solution at pH 6.8 (called hereafter "potassium phosphate buffer").
as §1
Porcine pancreatic lipase (manufactured by Sigma Co., Ltd.) was added to the potassium phosphate buffer solution to prepare a lipase solution containing 100 units porcine pancreatic lipase per ml.
as §2
50 μl of potassium phosphate buffer was added to the substrate to prepare an emulsion for control sample. Each 50 μl of the protein(polypeptide)-containing solutions as prepared above was added to 100 μl of the substrate to prepare six emulsions for test samples. All of the emulsions were incubated for 5 min. To each of those emulsions was added 50 μl of the lipase solution as prepared above. The resulting mixture was incubated at 37° C. for one hour, subsequently to which were added 3 ml of an extraction solvent (chloroform:methanol:n-heptane=49:1:49). After being shaken for 5 min., the mixture was centrifuged at 3000 rpm for 5 min. The upper layer was removed with an aspirator and to the remaining solution was added 1 ml of a copper reagent (0.45M triethanol amine, 0.05N acetic acid, 3,4% copper sulfate pentahydrate and 20% sodium chloride). The mixture was shaken for 5 min. and centrifuged at 3000 rpm for 5 min. 0.5 ml of a solution was taken from the upper layer and to the solution was added 0.5 ml of a color developing agent (a solution of 0.1% bathocuproine and 0.05% butyl hydroxyanisole in the above extraction solvent).
The resulting solutions for control and test samples were measured for the absorbance at 480 nm (A480) using a photometer to determine the amount of the free fatty acids as formed, i.e., the activity of the porcine pancreatic lipase.

[9] = target: cholesterol esterase isolated from porcine pancreas (Sus scrofa, UniProt A0A286ZKB1); conditions: protein solution 4 mg/ml; % of control Abs480; sodium cholate present; 37° C., one hour
cholesterol esterase isolated from porcine pancreas, sequence (A0A286ZKB1 1-682): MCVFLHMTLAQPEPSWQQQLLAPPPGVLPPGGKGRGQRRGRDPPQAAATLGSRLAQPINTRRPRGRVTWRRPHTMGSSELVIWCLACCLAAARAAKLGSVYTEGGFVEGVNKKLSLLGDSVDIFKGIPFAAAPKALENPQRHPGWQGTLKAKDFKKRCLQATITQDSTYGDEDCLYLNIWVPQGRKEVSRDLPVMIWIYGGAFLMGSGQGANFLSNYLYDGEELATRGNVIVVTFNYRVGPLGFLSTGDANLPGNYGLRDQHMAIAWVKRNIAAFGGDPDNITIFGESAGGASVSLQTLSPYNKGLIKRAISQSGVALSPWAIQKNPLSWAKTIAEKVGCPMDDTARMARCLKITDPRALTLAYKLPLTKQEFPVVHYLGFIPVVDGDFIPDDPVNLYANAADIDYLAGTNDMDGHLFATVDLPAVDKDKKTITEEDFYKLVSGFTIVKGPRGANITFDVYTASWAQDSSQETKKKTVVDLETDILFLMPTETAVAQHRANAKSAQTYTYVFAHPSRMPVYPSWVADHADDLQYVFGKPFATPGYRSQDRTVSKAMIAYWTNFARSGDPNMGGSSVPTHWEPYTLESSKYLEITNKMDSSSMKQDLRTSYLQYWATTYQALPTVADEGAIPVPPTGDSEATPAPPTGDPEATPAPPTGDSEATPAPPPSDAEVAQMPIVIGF
Procedure: as §2
as §3, with “potassium phosphate” for “Tris”, “Each 50 ml of the protein(polypeptide)-containing solutions as prepared above was added to 100 μl of the substrate to prepare six emulsions for test sample.” left out

[10] = target: Cholesterol esterase isolated from porcine pancreas (porcine)
[11] = lysine oligomer solution 1 μmol/ml, % of control
[12] = solution of 1 mg in 10 ml Tris buffer, % of control Abs480, sodium cholate present

## α-poly-L-lysine (3075, Peptide Research Co., Ltd.)
[1]
  Activity of porcine pancreatic lipase (Example 6, 1 mg/ml solution): 1.6 % of control
[2]
  Activity of porcine pancreatic lipase (%), Tris buffer: 6.9 % of control

## KKKKK [α-(L-lysine)5]
[3]; [11]
  Activity of porcine pancreatic lipase (%): 2.1%

## β-purothionin (SEQ ID NO:3) (peptide)
[4]
  Activity of porcine pancreatic lipase, separate experiment at 0.04 mg/ml: 5.2%
[2]
  Activity of porcine pancreatic lipase (%), Tris buffer: 1.3 % of control
[5]
  Activity of porcine pancreatic lipase, solution diluted to 0.2 mg/ml: 0%
[6]
  Activity of porcine pancreatic lipase (%): 0 % of control

## NCCCC[C@H](N)C(=O)NCCCC[C@H](N)C(=O)NCCCC[C@H](N)C(=O)NCCCC[C@H](N)C(=O)O [ε-(L-lysine)4]
[3]; [11]
  Activity of porcine pancreatic lipase (%): 53.8%

## Protamine
[3]; [12]
  Activity of porcine pancreatic lipase (%): 1.3%

## poly-L-arginine
[3]; [12]
  Activity of porcine pancreatic lipase (%): 16.5%

## NCCCC[C@H](NC(=O)[C@@H](N)CCCCN)C(=O)O [α-(L-lysine)2]
[3]; [11]
  Activity of porcine pancreatic lipase (%): 103.6%

## ε-(L-lysine)3 (peptide)
[7]
  Activity of porcine pancreatic lipase (%): 89 % of control

## NCCCC[C@H](N)C(=O)NCCCC[C@H](N)C(=O)NCCCC[C@H](N)C(=O)O [ε-(L-lysine)3]
[3]; [11]
  Activity of porcine pancreatic lipase (%): 89.0%

## α-poly-D-lysine hydrobromide
[3]
  Activity of porcine pancreatic lipase: 1.1

## α2-purothionin (SEQ ID NO:2) (peptide)
[6]
  Activity of porcine pancreatic lipase (%): 0 % of control

## α-poly-D-lysine hydrobromide (P7886, Sigma Co., Ltd.) (peptide)
[1]
  Activity of porcine pancreatic lipase (Example 6, 1 mg/ml solution): 1.1 % of control

## α-(L-lysine)2 (peptide)
[7]
  Activity of porcine pancreatic lipase (%): 104 % of control

## Histone H3 (H4380, Sigma Co., Ltd.)
[2]
  Activity of porcine pancreatic lipase (%), Tris buffer: 2.3 % of control

## β-Lactoglobulin: β-lactoglobulin (L0130, Sigma Co., Ltd.), non-basic comparison protein [reference compound]
[8]
  Activity of porcine pancreatic lipase (%): 103.9%
[9]
  Activity of cholesterol esterase (%): 89.9%

## Protamine (P4005, Sigma Co., Ltd., U.S.A.)
[2]
  Activity of porcine pancreatic lipase (%), Tris buffer: 1.3 % of control

## β-lactoglobulin (L0130, Sigma Co., Ltd.) (from UniProt P02754)
[10]
  Activity of cholesterol esterase (%): 89.9 % of control
[6]
  Activity of porcine pancreatic lipase (%): 104 % of control

## Ovalbumin (A5503, Sigma Co., Ltd.) (from UniProt P01012)
[10]
  Activity of cholesterol esterase (%): 93.6 % of control
[6]
  Activity of porcine pancreatic lipase (%): 107 % of control

## NCCCC[C@H](N)C(=O)NCCCC[C@H](N)C(=O)NCCCC[C@H](N)C(=O)NCCCC[C@H](N)C(=O)NCCCC[C@H](N)C(=O)O [ε-(L-lysine)5]
[3]; [11]
  Activity of porcine pancreatic lipase (%): 3.1%

## Poly-L-arginine (P3892, Sigma Co., Ltd.) (peptide)
[2]
  Activity of porcine pancreatic lipase (%), Tris buffer: 16.5 % of control

## α-poly-L-lysine hydrochloride
[3]
  Activity of porcine pancreatic lipase: 1.6
[3]; [12]
  Activity of porcine pancreatic lipase (%): 6.9%

## Histone H2A (H6881, Sigma Co., Ltd.)
[2]
  Activity of porcine pancreatic lipase (%), Tris buffer: 3.7 % of control

## ε-(L-lysine)4 (SEQ ID NO: 6) (peptide)
[7]
  Activity of porcine pancreatic lipase (%): 53.8 % of control

## ε-(L-lysine)5 (SEQ ID NO: 7) (peptide)
[7]
  Activity of porcine pancreatic lipase (%): 3.1 % of control

## Bovine serum albumin (A7030, Sigma Co., Ltd., U.S.A.) (from UniProt P02769)
[10]
  Activity of cholesterol esterase (%): 120 % of control
[6]
  Activity of porcine pancreatic lipase (%): 105 % of control

## NCCCC[C@H](NC(=O)[C@H](CCCCN)NC(=O)[C@H](CCCCN)NC(=O)[C@@H](N)CCCCN)C(=O)O [α-(L-lysine)4] (H-KKKK-OH)
[3]; [11]
  Activity of porcine pancreatic lipase (%): 103.8%

## β-Purothionin: purified β-purothionin (SEQ ID NO:3) isolated from the crude wheat purothionin mixture; misprinted α-Purothionin in Table 3 (KSCCKSTLGRNCYNLCRARGAQKLCANVCRCKLTSGLSCPKDFPK)
[8]; concentration of 0.04 mg/ml, separate experiment
  Activity of porcine pancreatic lipase: 5.2%
[8]
  Activity of porcine pancreatic lipase (%): 0%
[8]; solution diluted to protein concentration of 0.2 mg/ml
  Activity of porcine pancreatic lipase: 0%
[3]; [12]
  Activity of porcine pancreatic lipase (%): 1.3%

B1: α-(L-lysine)4 (SEQ ID NO: 4) (peptide)
peptide: KKKK
[7]
  Activity of porcine pancreatic lipase (%): 104 % of control

B2: α-(L-lysine)5 (SEQ ID NO: 5) (peptide)
peptide: KKKKK
[7]
  Activity of porcine pancreatic lipase (%): 2.1 % of control

B3: Ovalbumin: ovalbumin (A5503, Sigma Co., Ltd.), non-basic comparison protein (protein, UniProt P01012 2-386, looked up)
Ovalbumin: GSIGAASMEFCFDVFKELKVHHANENIFYCPIAIMSALAMVYLGAKDSTRTQINKVVRFDKLPGFGDSIEAQCGTSVNVHSSLRDILNQITKPNDVYSFSLASRLYAEERYPILPEYLQCVKELYRGGLEPINFQTAADQARELINSWVESQTNGIIRNVLQPSSVDSQTAMVLVNAIVFKGLWEKAFKDEDTQAMPFRVTEQESKPVQMMYQIGLFRVASMASEKMKILELPFASGTMSMLVLLPDEVSGLEQLESIINFEKLTEWTSSNVMEERKIKVYLPRMKMEEKYNLTSVLMAMGITDVFSSSANLSGISSAESLKISQAVHAAHAEINEAGREVVGSAEAGVDAASVSEEFRADHPFLFCIKHIATNAVLFFGRCVSP
[8]
  Activity of porcine pancreatic lipase (%): 107.0%
[9]
  Activity of cholesterol esterase (%): 93.6%

Source: patent US5376640A, “Lipolytic enzyme inhibitors” (Nisshin Flour Milling Co., Ltd., priority 1989, dated 1994)
